Test results: patent US20220235118A1 (IMMUNOME, published 2022)

B1: PR193_00018 (antibody, V domains shown)
VH: EVQLVESGGGLVQPGGSLRLSCSASGFTFSSFWMSWVRQAPGKGLEWVATIREDGSEKYYVDSVKGRFSISRDNAKNSLYLQMNSLRAEDTAVYYCARSKWLRGSFDYWGQGTLVTVSS
VL: NFMLTQPHSVSESPGKTVTISCTRRSGSIASNYVQWYQQRPGSAPTTVIYEDNQRPSGVPDRFSGSIDSSSNSASLTISGLQTEDEADYYCQSYDSSNPPGASWVFGGGTKLTVL
notes: also called IMM20184; IMM200184
B2: PR200_00622 (antibody, V domains shown)
VH: QVQLVESGGGVVQPGRSLRLSCTASGFTFSTYGMHWVRQAPGKGLEWVAVISYDGSSKHYAESVKGRFTISRDNSNNTLYLQMNRLRAEDTAVYYCARDGQPPGWGNYFDYWGQGTLVTVAS
VL: SYVLTQPPSVSVAPGKTARITCGGNGIGSKSVYWYQQKPGQAPEVVVYDDSDRPSGIPERFSGSNSGNTATLTISRVEAGDEADYYCQVWDSSSDPWVFGGGTKLTVL
notes: also called IMM20253; PR200_00253
B3: PR194_00232 (antibody, V domains shown)
VH: EVQLVESGGGLVQPGGSLRLSCSASGFTVSSNYMSWVRQAPRKGLEWVSVIYAGGSTFYADSVKGRFTISRDNSKNTLLLQMNSLRAEDTAVYYCARDRGGYLDYWGQGTLVTVSS
VL: DIQMTQSPSSLSASVGDRVTITCRASQGISNYLAWYQQKPGKVPKLLIYAASTLQSGVPSRFSGSGSGTDFTLTISSLQPEDVATYYCQKYNSAPGLTFGGGTKVEIK
notes: also called IMM20190; PR194_00190

Experiments:
[1] = molecular target: T1, SARS-CoV-2 Spike S1 domain, reference (SARS-CoV-2, UniProt P0DTC2 16-685); experiment: HTRF, soluble S1 construct
T1 construct: domain: S1; also called S1 subunit

[2] = molecular target: T2, SARS-CoV-2 Spike, full-length S (FL, trimer-stabilized), reference (WA1/2020) (SARS-CoV-2, UniProt P0DTC2 14-1208); experiment: SPR, antibody as ligand, Trimer as analyte
T2 construct: also called Spike trimer; intact trimer

[3] = molecular target: T3, SARS-CoV-2 Spike receptor binding domain (RBD), reference (USA/WA_CDC-WA1/2020) (SARS-CoV-2, UniProt P0DTC2 319-591); experiment: HTRF, soluble RBD construct
[4] = molecular target: T3, SARS-CoV-2 Spike receptor binding …; experiment: SPR, antibody as ligand, RBD as analyte

| Binder | EC50 [1] [nM] | Kd [2] [nM] | koff [2] [s⁻¹] | kon [2] [M⁻¹ s⁻¹] | EC50 [3] [nM] | Kd [4] [nM] | koff [4] [s⁻¹] | kon [4] [M⁻¹ s⁻¹] |
| --- | --- | --- | --- | --- | --- | --- | --- | --- |
| B1 | 0.0318 | 7.35 | 0.000229 | 31200 | 0.0448 | 22 | 0.00131 |  |
| B2 | 0.0491 | 1.44 | 0.000117 | 81300 | 0.0527 | 0.157 | 0.000218 | 1.39e+06 |
| B3 | 0.056 | 6.59 | 0.000195 | 29500 | 0.0682 | 1.87 | 0.000376 | 202000 |
